Test results reported in patent US20210373004A1.

Assays:
[1] = biological target: Flag-mCherry-ColErw-Cys-6His (Pectobacterium carotovorum); test: EIA 8 plex n° 2: colicin coated at 100 nM, Im-RLuc8 alone at 100 nM, luciferase signal
[2] = biological target: Flag-mCherry-ColKhan-Cys-6His (Photorhabdus khanii); test: as above
[3] = biological target: Flag-mCherry-ColKhan-Cys-6His (Photorhabdus khanii); test: EIA 8 plex n° 1: colicin coated at 100 nM, Im-RLuc8 alone at 100 nM, luciferase signal

Measured: RLU

B1: Myc-RLuc8-Im9-6His (protein)
chain: MGGEQKLISEEDLGGSASKVYDPEQRKRMITGPQWWARCKQMNVLDSFINYYDSEKHAENAVIFLHGNATSSYLWRHVVPHIEPVARCIIPDLIGMGKSGKSGNGSYRLLDHYKYLTAWFELLNLPKKIIFVGHDWGAALAFHYAYEHQDRIKAIVHMESVVDVIESWDEWPDIEEDIALIKSEEGEKMVLENNFFVETVLPSKIMRKLEPEEFAAYLEPFKEKGEVRRPTLSWPREIPLVKGGKPDVVQIVRNYNAYLRASDDLPKLFIESDPGFFSNAIVEGAKKFPNTEFVKVKGLHFLQEDAPDEMGKYIKSFVERVLKNEQKLELKHSISDYTEAEFLQLVTTICNADTSSEEELVKLVTHFEEMTEHPSGSDLIYYPKEGDDDSPSGIVNTVKQWRAANGKLEGGGSHHHHHH
> 100000 RLU: all assays above
